According to patent US20210032365A1 (Chugai, published 2021):

Experiments:
human C1s [1] = target: T1, human C1s (human, UniProt P09871 16-688); test: SPR, Ab captured; pH 7.4, 1.2 mM Ca
T1 construct: also called hC1s; serum-derived human C1s (CompTech)
T1 sequence: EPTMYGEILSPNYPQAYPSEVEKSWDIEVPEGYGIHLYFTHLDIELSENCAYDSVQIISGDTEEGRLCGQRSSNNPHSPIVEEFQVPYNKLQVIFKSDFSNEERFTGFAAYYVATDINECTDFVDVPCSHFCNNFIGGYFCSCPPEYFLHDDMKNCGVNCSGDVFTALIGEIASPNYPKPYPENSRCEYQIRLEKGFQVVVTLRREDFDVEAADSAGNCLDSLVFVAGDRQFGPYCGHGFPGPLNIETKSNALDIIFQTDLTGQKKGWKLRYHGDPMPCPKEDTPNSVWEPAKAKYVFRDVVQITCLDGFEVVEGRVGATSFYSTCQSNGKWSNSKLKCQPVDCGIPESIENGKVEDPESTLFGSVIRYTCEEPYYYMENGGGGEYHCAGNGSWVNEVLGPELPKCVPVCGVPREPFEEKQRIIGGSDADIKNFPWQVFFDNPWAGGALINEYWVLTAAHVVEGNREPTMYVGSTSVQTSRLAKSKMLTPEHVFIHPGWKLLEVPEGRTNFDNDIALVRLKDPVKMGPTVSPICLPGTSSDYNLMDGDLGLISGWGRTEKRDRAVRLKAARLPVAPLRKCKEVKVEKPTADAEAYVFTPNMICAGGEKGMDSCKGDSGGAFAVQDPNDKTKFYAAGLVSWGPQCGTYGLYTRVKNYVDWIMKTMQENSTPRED
Protocol: (§1) All variants were transiently expressed and purified by the method described above. The binding affinity of each histidine-substituted variant at pH 7.4 and pH 5.8 was determined at 37 degrees C. using Biacore T200 instrument (GE Healthcare). Recombinant Protein A/G (Pierce) was immobilized onto all flow cells of a CM4 sensor chip using an amine coupling kit (GE Healthcare). Antibodies and analytes were prepared in 7(+) buffer (20 mM ACES, 150 mM NaCl, 1.2 mM CaCl2, 0.05% Tween 20, 0.005% NaN3, pH 7.4), 5(+) buffer (20 mM ACES, 150 mM NaCl, 1.2 mM CaCl2, 0.05% Tween 20, 0.005% NaN3, pH 5.8), or 5(−) buffer (20 mM ACES, 150 mM NaCl, 3 micro M CaCl2, 0.05% Tween 20, 0.005% NaN3, pH 5.8). Each antibody was captured onto the sensor surface by protein A/G. Antibody capture levels were aimed at 200 resonance unit (RU). Serum-derived human C1s (CompTech) or recombinant C1s prepared in EXAMPLE 1 was injected at 50 nM, followed by dissociation. The sensor surface was regenerated in each cycle with 10 mM Glycine-HCl, pH 1.5. […] The ratio of KD 5.8+ to KD 7.4+(“KD 5+/7+”) and that of KD 5.8− to KD 7.4+(“KD 5−/7+”) were calculated. When the KD 5+/7+ or KD 5−/7+ of a variant is larger than that of the parent antibody IPN009VH2-SG4GK/IPN009VK3-SK1, that variant is considered to be “pH”- or “pH and Ca”-dependent, respectively. When binding response in 5(+) buffer and/or in 5(−) buffer of a variant is much lower than that of IPN09VH2/IPN009VK3, that variant is also considered as “pH”- and/or “pH and Ca”-dependent. Therefore, such mutations are effective to generate “pH”- and/or “pH and Ca”-dependent antibody. To further enhance “pH” and/or “pH and Ca” dependency, a combination of histidine mutations was conducted. Antibodies with combinations of histidine mutations were evaluated using Biacore by the method described above.

human C1s [2] = target: T1, human C1s; test: SPR, Ab captured; pH 5.8, 1.2 mM Ca
Protocol: as §1

human C1s [3] = target: T1, human C1s; test: SPR, Ab captured; pH 7.4, 1.2 mM Ca; remark: listed apart in the source
Protocol: Each antibody was captured onto the sensor surface by protein A/G. Antibody capture levels were aimed at 200 resonance unit (RU). Serum-derived human C1s (CompTech) or recombinant C1s prepared in EXAMPLE 1 was injected at 50 nM, followed by dissociation. The sensor surface was regenerated in each cycle with 10 mM Glycine-HCl, pH 1.5. […] The ratio of KD 5.8+ to KD 7.4+(“KD 5+/7+”) and that of KD 5.8− to KD 7.4+(“KD 5−/7+”) were calculated. When the KD 5+/7+ or KD 5−/7+ of a variant is larger than that of the parent antibody IPN009VH2-SG4GK/IPN009VK3-SK1, that variant is considered to be “pH”- or “pH and Ca”-dependent, respectively. When binding response in 5(+) buffer and/or in 5(−) buffer of a variant is much lower than that of IPN09VH2/IPN009VK3, that variant is also considered as “pH”- and/or “pH and Ca”-dependent. Therefore, such mutations are effective to generate “pH”- and/or “pH and Ca”-dependent antibody. To further enhance “pH” and/or “pH and Ca” dependency, a combination of histidine mutations was conducted. Antibodies with combinations of histidine mutations were evaluated using Biacore by the method described above.
C1_1IPN92H0033 (SEQ ID NO: 17)-SG4GK/IPN93L0024 (SEQ ID NO: 18)-SK1 (IPN92H0033/IPN93L0024) was selected for further optimization. Histidine, Lysine, Arginine, aspartic acid, glutamic acid, and glutamine scanning was conducted for CDRs and certain positions of FRs of IPN92H0033/IPN93L0024. Variants with a mutation were generated and purified, and evaluated using Biacore by the method mentioned above. All variants were evaluated using Biacore as mentioned above. Mutations that improved “pH” and/or “pH and Ca” dependency were selected for the combination.

human C1s [4] = target: T1, human C1s; test: SPR; KD pH 5.8 3 uM Ca / KD pH 7.4 1.2 mM Ca
Protocol: as §1

human C1s [5] = target: T1, human C1s; test: SPR; KD pH 5.8 1.2 mM Ca / KD pH 7.4 1.2 mM Ca
Protocol: as §1

human C1s [6] = target: T2, human C1s (human, UniProt P09871 16-688); test: SPR; KD at pH 5.8 (3 uM Ca) over KD at pH 7.4 (1.2 mM Ca)
T2 construct: Analyte in the Biacore assays; also called hC1s; serum-derived human C1s (CompTech)
T2 sequence: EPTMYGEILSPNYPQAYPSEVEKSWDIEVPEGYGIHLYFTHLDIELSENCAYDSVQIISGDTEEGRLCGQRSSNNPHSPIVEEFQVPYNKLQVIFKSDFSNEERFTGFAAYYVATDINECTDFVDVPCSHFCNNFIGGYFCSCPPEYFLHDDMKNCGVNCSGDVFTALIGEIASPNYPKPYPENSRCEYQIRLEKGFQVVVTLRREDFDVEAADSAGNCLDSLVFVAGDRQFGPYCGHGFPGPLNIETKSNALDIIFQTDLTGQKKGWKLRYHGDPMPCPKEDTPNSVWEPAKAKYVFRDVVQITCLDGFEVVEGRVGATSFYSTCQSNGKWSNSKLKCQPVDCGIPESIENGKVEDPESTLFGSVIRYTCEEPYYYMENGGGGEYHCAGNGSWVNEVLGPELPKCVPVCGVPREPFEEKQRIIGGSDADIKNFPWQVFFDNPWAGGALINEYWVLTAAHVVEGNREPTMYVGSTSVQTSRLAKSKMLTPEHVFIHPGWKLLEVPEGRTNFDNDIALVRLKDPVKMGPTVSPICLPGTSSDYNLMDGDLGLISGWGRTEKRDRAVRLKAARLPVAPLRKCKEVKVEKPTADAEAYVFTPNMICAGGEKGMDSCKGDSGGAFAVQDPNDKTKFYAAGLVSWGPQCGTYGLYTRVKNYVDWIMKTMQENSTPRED
In short: (§2)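 Antibody captured on protein A/G (~200 RU) on Biacore T200 at 37C; serum-derived or recombinant human C1s injected at 50 nM, then dissociation. KD measured at pH 7.4 with 1.2 mM Ca and at pH 5.8 with 1.2 mM or 3 uM Ca; KD ratios pH 5.8/pH 7.4 calculated.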

human C1s [7] = target: T2, human C1s; test: SPR; KD at pH 5.8 (1.2 mM Ca) over KD at pH 7.4 (1.2 mM Ca)
In short: as §2

human C1s [8] = target: T2, human C1s; test: SPR (Biacore T200, 37C), Ab captured on protein A/G; pH 5.8, 3 uM Ca
In short: as §2

human C1s [9] = target: T2, human C1s; test: SPR (Biacore T200, 37C), Ab captured on protein A/G; pH 5.8, 1.2 mM Ca
In short: as §2

Binder	koff (human C1s [1])	kon (human C1s [1])	koff (human C1s [2])	kon (human C1s [2])	koff (human C1s [3])	kon (human C1s [3])	KD 5(-)/7(+) (human C1s [4])	KD 5(+)/7(+) (human C1s [5])	KD 5(-)/7(+) (human C1s [6])	KD 5(+)/7(+) (human C1s [7])	Kd (human C1s [8])	koff (human C1s [8])	kon (human C1s [8])	Kd (human C1s [9])	koff (human C1s [9])	kon (human C1s [9])
C1_IPN92H0033-SG4GK/IPN93L0024-SK1 (antibody, human IgG4 S228P, kappa, also called IPN92H0033/IPN93L0024) heavy: not shown light: QIVLTQSPATLSLSPGERATLSCTASSSVSSSYLHWYQQKPGKAPKLWIYSTSNLASGVPSRFSGSGSGTDYTLTISSLQPEDFATYYCHQYYRLHPITFGQGTKLEIKRTVAAPSVFIFPPSDEQLKSGTASVVCLLNNFYPREAKVQWKVDNALQSGNSQESVTEQDSKDSTYSLSSTLTLSKADYEKHKVYACEVTHQGLSSPVTKSFNRGEC	0.000776 s⁻¹	268000 M⁻¹ s⁻¹	0.0045 s⁻¹	519000 M⁻¹ s⁻¹	0.000776 s⁻¹	268000 M⁻¹ s⁻¹	1.8	3	–	–	–	–	–	–	–	–
C1_IPN92H0281-SG4GK/IPN93L0091-SK1 (antibody, human IgG4 S228P, kappa, name in Kabat numbering, V domains shown, Substitutions from IPN009VH2 / IPN009VK3, Kabat numbering; also called IPN92H0281/IPN93L0091) VH: EVMLVESGGGLVKPGGSLRLSCAASGFTFSNYAMSWVRQAPGKGLEWVATISSGGSKTYELDSVDERFTISRDNSKDTLYLQMNSLRAEDTALYYCARLFTKHAMDYWGQGTLVTVSS VL: QIVLTQSPATLSLSPGERATLSCTASSSVSSSRLHWYQQKPGKAPKLWIYSTSNLASGVPSRFSGSGSGTDYTLTISSLQPEDFATYYCHQYYRLHPITFGQGTKLEIKR	–	–	–	–	–	–	–	–	0.82	2.4	3.88 nM	0.00227 s⁻¹	585000 M⁻¹ s⁻¹	11.3 nM	0.00707 s⁻¹	625000 M⁻¹ s⁻¹
C1_IPN92H0282-SG4GK/IPN93L0091-SK1 (antibody, human IgG4 S228P, kappa, name in Kabat numbering, V domains shown, Substitutions from IPN009VH2 / IPN009VK3, Kabat numbering; also called IPN92H0282/IPN93L0091) VH: EVMLVESGGGLVKPGGSLRLSCAASGFTFSNYAMSWVRQAPGKGLEWVATISSGGSHTYELDSVDERFTISRDNSKDTLYLQMNSLRAEDTALYYCARLFTKHAMDYWGQGTLVTVSS VL: QIVLTQSPATLSLSPGERATLSCTASSSVSSSRLHWYQQKPGKAPKLWIYSTSNLASGVPSRFSGSGSGTDYTLTISSLQPEDFATYYCHQYYRLHPITFGQGTKLEIKR	–	–	–	–	–	–	–	–	1.13	8.6	2.21 nM	0.00148 s⁻¹	670000 M⁻¹ s⁻¹	16.9 nM	0.00755 s⁻¹	445000 M⁻¹ s⁻¹
C1_IPN92H0286-SG4GK/IPN93L0205-SK1 (antibody, human IgG4 S228P, kappa, name in Kabat numbering, Substitutions from IPN009VH2 / IPN009VK3, Kabat numbering; also called IPN92H0286/IPN93L0205) heavy: not shown light: QIVLTQSPATLSLSPGERATLSCTASSSVSSSRLHWYQQKPGKAPKLWIYSTSNLASGVPSRFSGSGSGTDYTLTISSLQPEDFATYYCHQYHRHPPITFGQGTKLEIKRTVAAPSVFIFPPSDEQLKSGTASVVCLLNNFYPREAKVQWKVDNALQSGNSQESVTEQDSKDSTYSLSSTLTLSKADYEKHKVYACEVTHQGLSSPVTKSFNRGEC	–	–	–	–	–	–	–	–	2.94	4.2	4.65 nM	0.00477 s⁻¹	1.03e+06 M⁻¹ s⁻¹	6.57 nM	0.00346 s⁻¹	527000 M⁻¹ s⁻¹
C1_IPN92H0288-SG4GK/IPN93L0212-SK1 (antibody, human IgG4 S228P, kappa, name in Kabat numbering, V domains shown, VL substitutions from IPN009VK3, Kabat numbering; also called IPN92H0288/IPN93L0212) VH: EVMLVESGGGLVKPGGSLRLSCAASGFTFSNYAMSWVRQAPGKGLEWVATISSGGSHTYELDSVDGRFTISRDNSKDTLYLQMNSLRAEDTALYYCARLFTKHAMDYWGQGTLVTVSS VL: QIVLTQSPATLSLSPGERATLSCTASSEVSESRLHWYQQKPGKAPKLWIYSTSNLASGVPSRFSGSGSGTDYTLTISSLQPEDFATYYCHQYYRLHPITFGQGTKLEIKR	–	–	–	–	–	–	–	–	3.75	11.6	6.79 nM	0.00533 s⁻¹	784000 M⁻¹ s⁻¹	21 nM	0.0198 s⁻¹	945000 M⁻¹ s⁻¹
C1_IPN92H0282-SG4GK/IPN93L0024-SK1 (antibody, human IgG4 S228P, kappa, name in Kabat numbering, V domains shown, Substitutions from IPN009VH2, Kabat numbering; also called IPN92H0282/IPN93L0024) VH: EVMLVESGGGLVKPGGSLRLSCAASGFTFSNYAMSWVRQAPGKGLEWVATISSGGSHTYELDSVDERFTISRDNSKDTLYLQMNSLRAEDTALYYCARLFTKHAMDYWGQGTLVTVSS VL: QIVLTQSPATLSLSPGERATLSCTASSSVSSSYLHWYQQKPGKAPKLWIYSTSNLASGVPSRFSGSGSGTDYTLTISSLQPEDFATYYCHQYYRLHPITFGQGTKLEIKR	–	–	–	–	–	–	–	–	5.18	10.9	8.55 nM	0.00327 s⁻¹	382000 M⁻¹ s⁻¹	18 nM	0.00998 s⁻¹	553000 M⁻¹ s⁻¹
